Like-named read-outs stand apart in the source and are kept apart here.
B1: SARS-CoV-2 S1 variant 2-5 (antibody, V domains shown)
VH: EVQLLESGGGLVQPGGSLRLSCAASGFTFSDFAMAWVRQAPGKGLEWVSAISGSGDITYYADSVKGRFTISRDNSKNTLYLQMNSLRAEDTAVYYCAREADGLHSPWHFDLWGQGTLVTVSS
VL: DIQMTQSPSSLSASVGDRVTITCRASQSIHTYLNWYQQKPGKAPKLLIYAASALASGVPSRFSGSGSGTDFTLTISSLQPEDFATYYCQQSYSAPPYTFGQGTKVEIK
B2: SARS-CoV-2 S1 variant 2-2 (antibody, V domains shown)
VH: EVQLLESGGGLVQPGGSLRLSCAASGFTFSRHAMNWVRQAPGKGLEWVSGISGSGDETYYADSVKGRFTISRDNSKNTLYLQMNSLRAEDTAVYYCARDLPASYYDSSGYYWHNGMDVWGQGTLVTVSS
VL: DIQMTQSPSSLSASVGDRVTITCRASQTINTYLNWYQQKPGKAPKLLIYSASTLQSGVPSRFSGSGSGTDFTLTISSLQPEDFATYYCQQSYSTFTFGQGTKVEIK
B3: SARS-CoV-2 variant 1-27 (antibody, V domains shown)
VH: EVQLLESGGGLVQPGGSLRLSCAASGFTFSSYAMTWVRQAPGKGLEWVSAISGSGGGTYYADSVKGRFTISRDNSKNTLYLQMNSLRAEDTAVYYCASSSSWQFDYWGQGTLVTVSS
VL: QSALTQPASVSGSPGQSITISCTGTSSYVGHYNLVSWYQQHPGKAPKLMIYEGSRRPSGVSNRFSGSKSGNTASLTISGLQAEDEADYYCCSYAGSYTHYVFGGGTKLTVL
B4: SARS-CoV-2 variant 1-35 (antibody, V domains shown)
VH: EVQLLESGGGLVQPGGSLRLSCAASGFTFSNYAMSWVRQAPGKGLEWVSDISGSGGSTYYADSVKGRFTISRDNSKNTLYLQMNSLRAEDTAVYYCVKGTIPIFGVIRSAFDYWGQGTLVTVSS
VL: QSALTQPASVSGSPGQSITISCTGTSSDVGSYSLVSWYQQHPGKAPKLMIYEGTKRPSGVSNRFSGSKSGNTASLTISGLQAEDEADYYCCSYAGSYSYVVFGGGTKLTVL
B5: SARS-CoV-2 variant 1-36 (antibody, V domains shown)
VH: EVQLLESGGGLVQPGGSLRLSCAASGLTFSSYAMSWVRQAPGKGLEWVSDISGSGGSTYYADSVKGRFTISRDNSKNTLYLQMNSLRAEDTAVYYCVKGTIPIFGVIRSAFDYWGQGTLVTVSS
VL: QSALTQPASVSGSPGQSITISCTGTSSDVGSYSLVSWYQQHPGKAPKLMIYEGDKRPSGVSNRFSGSKSGNTASLTISGLQAEDEADYYCCSYAGSYSYVVFGGGTKLTVL
B6: SARS-CoV-2 variant 1-10 (antibody, V domains shown)
VH: EVQLLESGGGLVQPGGSLRLSCAASGFTFSSYDMSWVRQAPGKGLEWVSVISGSGGSTYYADSVKGRFTISRDNSKNTLYLQMNSLRAEDTAVYYCAKGPLVGWYFDLWGQGTLVTVSS
VL: QSALTQPASVSGSPGQSITISCTGTSSNVGSYNLVSWYQQHPGKAPKLMIYEGTKRPSGVSNRFSGSKSGNTASLTISGLQAEDEADYYCCSYAGSSSFVVFGGGTKLTVL
B7: SARS-CoV-2 variant 1-25 (antibody, V domains shown)
VH: EVQLLESGGGLVQPGGSLRLSCAASGFTFSDYAMNWVRQAPGKGLEWVSIISGSGGSTYYADSVKGRFTISRDNSKNTLYLQMNSLRAEDTAVYYCAREGYRDYLWYFDLWGQGTLVTVSS
VL: QSALTQPASVSGSPGQSITISCSGTSSDVGSYNLVSWYQQHPGKAPKLMIYEASKRPSGVSNRFSGSKSGNTASLTISGLQAEDEADYYCCSYAGSSTVFGGGTKLTVL
B8: SARS-CoV-2 variant 1-23 (antibody, V domains shown)
VH: EVQLLESGGGLVQPGGSLRLSCAASGFTFSSYAISWVRQAPGKGLEWVSIISGSGGSTYYADSVKGRFTISRDNSKNTLYLQMNSLRAEDTAVYYCAREGYRDYLWYFDLWGQGTLVTVSS
VL: QSALTQPASVSGSPGQSITISCTGTSNDVGSYNLVSWYQQHPGKAPKLMIYEGNKRPSGVSNRFSGSKSGNTASLTISGLQAEDEADYYCCSYAGSYTVFGGGTKLTVL
B9: SARS-CoV-2 variant 1-7 (antibody, V domains shown)
VH: EVQLLESGGGLVQPGGSLRLSCAASGFTFSSYDMSWVRQAPGKGLEWVSVISGSGGSTYYADSVKGRFTISRDNSKNTLYLQMNSLRAEDTAVYYCAKGPLVGWYFDLWGQGTLVTVSS
VL: QSALTQPASVSGSPGQSITISCTGTSSDFGSYNLVSWYQQHPGKAPKLMIYEGNKRPSGVSNRFSGSKSGNTASLTISGLQAEDEADYYCCSYAGSSTFVVFGGGTKLTVL
B10: SARS-CoV-2 variant 1-48 (antibody, V domains shown)
VH: EVQLLESGGGLVQPGGSLRLSCAASGFTFSSHAMYWVRQAPGKGLEWVSAISGSAGSTYYADSVKGRFTISRDNSKNTLYLQMNSLRAEDTAVYYCAHDTKDFWSGYCIFDPWGQGTLVTVSS
VL: QSALTQPASVSGSPGQSITISCTGTSSDIGSYNLVSWYQQHPGKAPKLMIYEGTKRPSGVSNRFSGSKSGNTASLTISGLQAEDEADYYCCSYAGSRTYVFGGGTKLTVL
B11: SARS-CoV-2 variant 1-24 (antibody, V domains shown)
VH: EVQLLESGGGLVQPGGSLRLSCAASGFTFSSYAMNWVRQAPGKGLEWVSIISGSGGSTYYADSVKGRFTISRDNSKNTLYLQMNSLRAEDTAVYYCAREGYRDYLWYFDLWGQGTLVTVSS
VL: QSALTQPASVSGSPGQSITISCTGTSSDVGYYNLVSWYQQHPGKAPKLMIYEGNKRPSGVSNRFSGSKSGNTASLTISGLQAEDEADYYCCSYAGGSVVFGGGTKLTVL

Key:
[1] = biological target: T1, COVID S1 RBD Fc fusion (Antigen 1) (SARS-CoV-2, UniProt P0DTC2 319-541); experiment: phage ELISA
[2] = biological target: T2, S1 Fc fusion protein (SARS-CoV-2, UniProt P0DTC2 14-685); experiment: phage ELISA
T2 construct: domain: S1

[3] = biological target: T3, COVID S1 RBM Fc fusion (Antigen 2) (SARS-CoV-2, UniProt P0DTC2 437-508); experiment: phage ELISA
T3 construct: domain: RBM

[4] = biological target: T1, COVID S1 RBD Fc fusion (Antigen 1); experiment: phage ELISA; remark: listed apart in the source
[5] = biological target: T2, S1 Fc fusion protein; experiment: phage ELISA; remark: listed apart in the source
[6] = biological target: T3, COVID S1 RBM Fc fusion (Antigen 2); experiment: phage ELISA; remark: listed apart in the source
[7] = biological target: T4, SARS-CoV-2 S1 (antigen of the Carterra SPR kinetics) (SARS-CoV-2, UniProt P0DTC2 16-685); experiment: Carterra SPR
[8] = biological target: T4, SARS-CoV-2 S1 (antigen of the Carterra …); experiment: Carterra SPR; remark: listed apart in the source
[9] = biological target: T5, COVID S1 RBD Fc fusion (Antigen 1) (SARS-CoV-2, UniProt P0DTC2 319-541); experiment: phage ELISA; remark: listed apart in the source
[10] = biological target: T6, S1 Fc fusion protein (SARS-CoV-2, UniProt P0DTC2 14-685); experiment: phage ELISA
[11] = biological target: T7, COVID S1 RBM Fc fusion (Antigen 2) (SARS-CoV-2, UniProt P0DTC2 437-508); experiment: phage ELISA
[12] = biological target: T5, COVID S1 RBD Fc fusion (Antigen 1); experiment: phage ELISA; remark: listed apart in the source
[13] = biological target: T6, S1 Fc fusion protein; experiment: phage ELISA; remark: listed apart in the source
[14] = biological target: T7, COVID S1 RBM Fc fusion (Antigen 2); experiment: phage ELISA; remark: listed apart in the source

Row | Binder | ELISA fold over background [1] [fold] | ELISA fold over background [2] [fold] | ELISA fold over background [3] [fold] | ELISA fold over background [4] [fold] | ELISA fold over background [5] [fold] | ELISA fold over background [6] [fold] | koff [7] [s⁻¹] | kon [7] [M⁻¹ s⁻¹] | Kd [8] [nM] | koff [8] [s⁻¹] | kon [8] [M⁻¹ s⁻¹] | ELISA fold over background [9] [fold] | ELISA fold over background [10] [fold] | ELISA fold over background [11] [fold] | ELISA fold over background [12] [fold] | ELISA fold over background [13] [fold] | ELISA fold over background [14] [fold]
1 | B1 | 35.9 | 24.3 | 1.1 | 35.9 | 24.3 | 1.1 | 0.000259 | 93900 | 2.8 | 0.000259 | 93900 |  |  |  |  |  | 
2 | B2 | 39.6 | 4.7 | 1.1 | 39.6 | 4.7 | 1.1 | 0.000906 | 77400 | 11.7 | 0.000906 | 77400 |  |  |  |  |  | 
3 | B3 |  |  |  |  |  |  |  |  |  |  |  | 1.9 | 1.3 | 1.6 | 1.9 | 1.3 | 1.6
4 | B4 |  |  |  |  |  |  |  |  |  |  |  | 1.8 | 1.4 | 1.6 | 1.8 | 1.4 | 1.6
5 | B5 |  |  |  |  |  |  |  |  |  |  |  | 1.2 | 1.1 | 0.8 | 1.2 | 1.1 | 0.8
6 | B6 |  |  |  |  |  |  |  |  |  |  |  | 17.4 | 1.3 | 1.1 | 17.4 | 1.3 | 1.1
7 | B7 |  |  |  |  |  |  |  |  |  |  |  | 2.7 | 1 | 0.8 | 2.7 | 1 | 0.8
8 | B8 |  |  |  |  |  |  |  |  |  |  |  | 3.6 | 1.6 | 1.6 | 3.6 | 1.6 | 1.6
9 | B9 |  |  |  |  |  |  |  |  |  |  |  | 3.3 | 1.7 | 1.6 | 3.3 | 1.7 | 1.6
10 | B10 |  |  |  |  |  |  |  |  |  |  |  | 2.1 | 0.8 | 0.8 | 2.1 | 0.8 | 0.8
11 | B11 |  |  |  |  |  |  |  |  |  |  |  | 11 | 1.1 | 1.3 | 11 | 1.1 | 1.3
